Test results reported in patent US20230295324A1 (published 2023).

Legend:
[1] = target: T1, human OX40 on cells (CHO-K1/hu OX40) (human, UniProt P43489 29-277); test: FACS, blocking of biotin-human OX40L on CHO-K1/hu OX40 cells
T1 construct: whole, on cells; Also used here for OX40 on the HEK293/OX40/NF-kb reporter cells and on human T cells in the functional assays; also called CHO-K1/OX40; human OX40 cells
T1 sequence (looked up): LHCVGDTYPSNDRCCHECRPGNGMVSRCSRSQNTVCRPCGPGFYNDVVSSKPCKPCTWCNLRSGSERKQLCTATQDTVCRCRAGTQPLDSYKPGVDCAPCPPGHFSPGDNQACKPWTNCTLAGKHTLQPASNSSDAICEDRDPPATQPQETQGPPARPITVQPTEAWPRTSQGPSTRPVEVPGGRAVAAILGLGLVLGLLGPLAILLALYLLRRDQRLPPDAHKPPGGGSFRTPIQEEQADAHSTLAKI

[2] = target: T2, human OX40 protein (Acro biosystem, #OX0-H5224) (human, UniProt P43489 29-216); test: ELISA, coated human OX40 protein
T2 construct: Bought recombinant protein
T2 sequence (looked up): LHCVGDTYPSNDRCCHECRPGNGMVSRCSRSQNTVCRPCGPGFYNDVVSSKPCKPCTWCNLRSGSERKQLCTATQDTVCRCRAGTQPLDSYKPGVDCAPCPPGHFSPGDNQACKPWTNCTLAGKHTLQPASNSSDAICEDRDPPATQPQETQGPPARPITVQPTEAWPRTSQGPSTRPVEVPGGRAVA

[3] = target: T3, human CD40 on CHO-K1 cells (CHO-K1/hu CD40) (human, UniProt P25942 21-277); test: flow cytometry on CHO-K1/hu CD40 cells
T3 construct: whole, on cells
Experimental: This example is intended to investigate the specificity of in vitro binding of anti-human OX40 HCAb monoclonal antibodies by detecting 3 receptors of the TNF tumor necrosis factor receptor superfamily and ICOS by flow cytometry. The antibody binding assay at the cellular level was performed using a CHO-K1 cell strain overexpressing human OX40 (CHO-K1/hu OX40), a CHO-K1 cell strain overexpressing human CD40 (CHO-K1/hu CD40, Beijing KYinno, #KC-1286), a CHO-K1 cell strain overexpressing human 4-1BB (CHO-K1/hu 4-1BB, Genscript, #M00538) and an HEK293 cell strain overexpressing human ICOS (HEK293T/ICOS, Genscript, #KC-0210). Briefly, these cells were digested and resuspended in F12K or DMEM complete medium, and the cell density was adjusted to 1×10⁶ cells/mL. The cells were seeded in a 96-well V-bottom plate at 100 μL/well, and centrifuged, and then the supernatant was discarded. Then, the test antibodies diluted in a 3-fold gradient were added at 100 μL/well. The cells were incubated at 4° C. for 1 h away from light. Thereafter, the cells in each well were rinsed twice with 100 μL of pre-cooled PBS, and centrifuged at 500 g at 4° C. for 5 min, and then the supernatant was discarded. […] Finally, the cells in each well were resuspended in 200 μL of pre-cooled PBS, and the fluorescence signal values were read using NovoCyte flow cytometer (ACEA Biosciences).

T3 sequence (P25942 21-277): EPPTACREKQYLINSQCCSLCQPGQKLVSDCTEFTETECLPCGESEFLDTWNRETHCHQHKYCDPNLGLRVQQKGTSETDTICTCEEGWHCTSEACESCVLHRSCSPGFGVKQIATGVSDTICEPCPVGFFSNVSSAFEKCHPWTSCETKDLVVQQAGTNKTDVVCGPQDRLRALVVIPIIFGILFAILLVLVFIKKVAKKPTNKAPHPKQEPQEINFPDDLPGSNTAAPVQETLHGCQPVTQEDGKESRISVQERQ

- IC50 [1]: 166 nM
- Maximum inhibition rate (%) [1]: 64%
- EC50 [2]: 0.0806 nM
- Maximum OD [2]: 2.38 OD
- binding result [3]: no binding
B1: PR002067 (antibody, human IgG1, V domains shown)
VH: EVQLLESGGGLVQPGGSLRLSCAASGFTFSSYAMSWVRQAPGKGLEWVSAISGRGGSTFYADSVRGRFTISRDNSKNTLYLQMNSLRAEDTAMYYCVDGTTGTTDVDYWGQGTLVTVSS
notes: no light chain; also called anti-OX40 HCAb antibody
